One data set has as its target T1, σJ (Mycobacterium tuberculosis, UniProt L0TCG5 1-312).
T1 sequence: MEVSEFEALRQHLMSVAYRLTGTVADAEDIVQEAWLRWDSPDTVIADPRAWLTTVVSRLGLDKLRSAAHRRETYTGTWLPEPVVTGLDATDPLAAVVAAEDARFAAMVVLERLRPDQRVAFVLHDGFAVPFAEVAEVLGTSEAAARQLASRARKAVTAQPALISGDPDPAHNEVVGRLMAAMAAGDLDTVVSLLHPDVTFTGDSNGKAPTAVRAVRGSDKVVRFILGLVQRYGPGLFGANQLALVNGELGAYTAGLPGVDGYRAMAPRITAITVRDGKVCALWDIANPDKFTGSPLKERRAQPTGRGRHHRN
In words: EMSA.

A further data set deals with T2, σJSnoaL_2 (Mycobacterium tuberculosis, UniProt L0TCG5 162-312).
T2 sequence: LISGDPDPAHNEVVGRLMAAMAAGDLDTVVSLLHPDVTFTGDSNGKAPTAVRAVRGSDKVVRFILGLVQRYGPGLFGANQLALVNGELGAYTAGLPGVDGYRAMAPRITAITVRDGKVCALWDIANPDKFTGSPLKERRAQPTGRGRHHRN
In words: EMSA.

B1: wt-sigIp (dsDNA)
DNA 1: GCTGTCACATTCGGCGGGGCTGTCTCGTCCTTGA
DNA 2: TCAAGGACGAGACAGCCCCGCCGAATGTGACAGC
With B1, the Kd in the data set with σJ was found to be 4.96 ± 0.94 µM. In addition, the binding result with σJSnoaL_2 was “no binding”.

The values are drawn from article PMC5766207.
